Biological target: T1, HLA-B*07:02 (human)
T1 construct: also called peptide-receptive MHC molecules
Assay: UV-exchange b2m ELISA; exchange-yield grade
Description: Candidate peptides for T cell based therapies according to the present invention were further tested for their MHC binding capacity (affinity). The individual peptide-MHC complexes were produced by UV-ligand exchange, where a UV-sensitive peptide is cleaved upon UV-irradiation, and exchanged with the peptide of interest as analyzed. Only peptide candidates that can effectively bind and stabilize the peptide-receptive MHC molecules prevent dissociation of the MHC complexes. To determine the yield of the exchange reaction, an ELISA was performed based on the detection of the light chain (β2m) of stabilized MHC complexes. The assay was performed as generally described in Rodenko et al. (Rodenko et al., 2006).
96 well MAXISorp plates (NUNC) were coated over night with 2 ug/ml streptavidin in PBS at room temperature, washed 4× and blocked for 1 h at 37° C. in 2% BSA containing blocking buffer. Refolded HLA-A*02:01/MLA-001 monomers served as standards, covering the range of 15-500 ng/ml. Peptide-MHC monomers of the UV-exchange reaction were diluted 100-fold in blocking buffer. Samples were incubated for 1 h at 37° C., washed four times, incubated with 2 ug/ml HRP conjugated anti-β2m for 1 h at 37° C., washed again and detected with TMB solution that is stopped with […]. Absorption was measured at 450 nm. Candidate peptides that show a high exchange yield (preferably higher than 50%, most preferred higher than 75%) are generally preferred for a generation and production of antibodies or fragments thereof, and/or T cell receptors or fragments thereof, as they show sufficient avidity to the MHC molecules and prevent dissociation of the MHC complexes.

Binder | peptide exchange yield
APRPASSL | 50 to 75%
RPIVPGPLL | 50 to 75%
APLPRPGAVL | 50 to 75%
KPGTSYRVTL | 50 to 75%
KPGPEDKL | 20 to 50%
RPLFQKSSM | 50 to 75%
SPFSAEEANSL | 50 to 75%
YPGFPQSQY | 20 to 50%
FPDNQRPAL | 50 to 75%
APAAWLRSA | 20 to 50%
RPAMNYDKL | 20 to 50%
MPNLPSTTSL | 50 to 75%
SPTFHLTL | 50 to 75%
FPRLVGPDF | 50 to 75%
SPHPVTALLTL | 50 to 75%
SPNKGTLSV | 50 to 75%
RVRSTISSL | 50 to 75%
YPRTITPGM | 50 to 75%
SPASRSISL | 50 to 75%
VPVYILLDEM | 20 to 50%
LPSDSHFKITF | 50 to 75%
IPGPAQSTI | 20 to 50%
LPRGPLASLL | 50 to 75%
APTEDLKAL | 50 to 75%
VPNQSSESL | 50 to 75%
SPGATSRGTL | 50 to 75%
RPAPFEVVF | 50 to 75%
RVRSRISNL | 50 to 75%
KPSESIYSAL | 50 to 75%
APRAGSQVV | 50 to 75%
